For assay [1], the target named is T1, CD98 (cluster of differentiation 98) (human, UniProt Q01650 1-507).
T1 construct: Endogenous CD98 in lysates of human HUVE or HEK293T cells; also called LAT1; transmembrane amino acid transporter CD98
Put plainly: co-IP from transfected HEK293T cells, IP anti-CD98, blot anti-myc. The text has this:
(§1) FIG. 2A depicts a schematic representation of TRPV4. […] The right panel gives the Western blotting for the expression of each transgene in total cell lysates of respective transfectants.

Assay [2] deals with T2, TRPV4 (transient receptor potential vanilloid 4) (human, UniProt Q9HBA0 1-871).
T2 construct: Endogenous TRPV4 in lysates of human HUVE or HEK293T cells, co-immunoprecipitation; also called TRPV4 membrane ion channel
Put plainly: co-IP from transfected HEK293T cells, IP anti-TRPV4, blot anti-HA.
From the text: as §1

In assay [3] the target is T3, β1-integrin (human, UniProt P05556 21-798).
T3 construct: Endogenous β1-integrin in lysates of human HUVE or HEK293T cells; No signal peptide limits are stated; also called B1-integrin; ITGB1
T3 sequence (P05556 21-798 limits assumed): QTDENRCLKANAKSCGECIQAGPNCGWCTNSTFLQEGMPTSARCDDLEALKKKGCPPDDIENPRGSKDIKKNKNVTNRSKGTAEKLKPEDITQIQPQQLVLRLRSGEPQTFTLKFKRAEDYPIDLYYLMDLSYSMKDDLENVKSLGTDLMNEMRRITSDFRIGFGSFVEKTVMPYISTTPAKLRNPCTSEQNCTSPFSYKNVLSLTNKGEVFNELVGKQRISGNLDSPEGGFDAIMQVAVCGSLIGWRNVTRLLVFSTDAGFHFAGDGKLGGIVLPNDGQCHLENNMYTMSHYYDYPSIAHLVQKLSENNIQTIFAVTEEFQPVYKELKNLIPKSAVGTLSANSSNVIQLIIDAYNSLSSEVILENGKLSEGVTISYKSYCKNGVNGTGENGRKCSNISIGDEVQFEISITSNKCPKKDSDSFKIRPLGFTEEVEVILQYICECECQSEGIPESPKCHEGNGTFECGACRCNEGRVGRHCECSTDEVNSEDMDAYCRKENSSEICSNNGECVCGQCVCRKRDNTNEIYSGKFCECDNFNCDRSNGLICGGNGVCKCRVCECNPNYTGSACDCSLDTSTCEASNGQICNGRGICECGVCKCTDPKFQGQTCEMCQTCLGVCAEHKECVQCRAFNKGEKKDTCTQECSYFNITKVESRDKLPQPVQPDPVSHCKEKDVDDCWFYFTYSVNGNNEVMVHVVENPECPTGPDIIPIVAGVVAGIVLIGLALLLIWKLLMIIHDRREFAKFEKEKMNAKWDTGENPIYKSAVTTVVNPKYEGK
Put plainly: co-IP from transfected HEK293T cells, IP anti-β1-integrin, blot anti-HA.
From the text: as §1

T1 sequence (Q01650 whole entry): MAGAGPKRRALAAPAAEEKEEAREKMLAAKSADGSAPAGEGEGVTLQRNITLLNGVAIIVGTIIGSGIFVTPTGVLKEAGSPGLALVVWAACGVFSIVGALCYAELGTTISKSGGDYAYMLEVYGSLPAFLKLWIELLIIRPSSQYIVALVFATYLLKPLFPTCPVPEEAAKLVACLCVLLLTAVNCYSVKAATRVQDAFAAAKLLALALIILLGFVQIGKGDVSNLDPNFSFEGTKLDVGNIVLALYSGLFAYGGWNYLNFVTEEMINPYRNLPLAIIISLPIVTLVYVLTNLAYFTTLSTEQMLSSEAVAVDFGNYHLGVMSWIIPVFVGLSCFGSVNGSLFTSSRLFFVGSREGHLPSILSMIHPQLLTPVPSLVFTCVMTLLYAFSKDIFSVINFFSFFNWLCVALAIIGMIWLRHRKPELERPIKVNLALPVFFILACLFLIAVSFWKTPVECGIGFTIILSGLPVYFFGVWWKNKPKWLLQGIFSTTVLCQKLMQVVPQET

B1: myc-linked TRPV4 lacking all ankyrin repeat domains (ΔAR1-3) (other)
chain: MADSSEGPRAGPGEVAELPGDESGTPGGEAFPLSSLANLFEGEDGSLSPSPADASRPAGPGDGRPNLRMKFQGAFRKGVPNPIDLLESTLYESSVVPGPKKAPMDSLFDYGTYRHHSSDNKRWRKKIIEKQPQSPKAPAPQPPPILKVFNRPILFDIVSRGSTADLDGLLPFLLTHKKRLTDEEFREPSTGKTCLPKALLNLSNGRNDTIPVLLDIAERTGNMREFINSPFRDIYYQARGRFFQPKDEGGYFYMRRQDSRGNTVLHALVAIADNTRENTKFVTKMYDLLLLKCARLFPDSNLEAVLNNTRHLSRKFKDWAYGPVYSSLYDLSSLDTCGEEASVLEILVYNSKIENRHEMLAVEPINELLRDKWRKFGAVSFYINVVSYLCAMVIFTLTAYYQPLEGTPPYPYRTTVDYLRLAGEVITLFTGVLFFFTNIKDLFMKKCPGVNSLFIDGSFQLLYFIYSVLVIVSAALYLAGIEAYLAVMVFALVLGWMNALYFTRGLKLTGTYSIMIQKILFKDLFRFLLVYLLFMIGYASALVSLLNPCANMKVCNEDQTNCTVPTYPSCRDSETFSTFLLDLFKLTIGMGDLEMLSSTKYPVVFIILLVTYIILTFVLLLNMLIALMGETVGQVSKESKHIWKLQWATTILDIERSFPVFLRKAFRSGEMVTVGKSSDGTPDRRWCFRVDEVNWSHWNQNLGIINEDPGKNETYQYYGFSHTVGRLRRDRWSSVVPRVVELNKNSNPDEVVVPLDSMGNPRCDGHQQGYPRKWRTDDAPL
notes: also called TRPV4 lacking all three ankyrin repeat domains; not shown: myc tag
Take B1: in assay [1], the binding result is recorded as “no binding”.

B2: HA-linked CD98 that lacks high homology domain (ΔHH) (other)
chain: MELQPPEASIAVVSIPRQLPGSHSEAGVQGLSAGDDSETGSDCVTQAGLQLLASSDPPALASKNAEVTVETGFHHVSQADIEFLTSIDPTASASGSAGITGTMSQDTEVDMKEVELNELEPEKQPMNAASGAAMSLAGAEKNGLVKIKVAEDEAEAAAACRELPAQKWWHTGALYRIGDLQAFQGHGAGNLAGLKGRLDYLSSLKVKGLVLGPIHKNQKDDVAQTDLLQIDPNFGSKEDFDSLLQSAKKKSIRVILDLTPNYRGENSWFSTQVDTVATKVKDALEFWLQAGVDGFQVRDIENLKDASSFLAEWQNITKGFSEDRLLIAGTNSSDLQQILSLLESNKDLLLTSSYLSDSGSTGEHTKSLVTQYLNATGNRWCSWSLSQARLLTSFLPAQLLRLYQLMLFTLPGTPVFSYGDEIGLDAAALPGQPMEAPVMLWDESSFPDIPGAVSANMTVKGQSEDPGSLLSLFRRLSDQRSKERSLLHGDFHAFSAGPGLFSYIRHWDQNERFLVVLNFGDVGLSAGLQASDLPASASLPAKADLLLSTQPGREEGSPLELERLKLEPHEGLLLRFPYAA
notes: Built from 'deletion of a 50 amino acid (160-210aa) high homology domain'; also called CD98 lacking the high homology domain; not shown: HA tag
In the case of B2, the binding result in assay [2] and in assay [3] was “no binding” each time.

Values taken from US20190002527A1 (CHILDREN S MEDICAL CENTER, published 2019).
